Where no end group is shown, it is not given here. Flc = fluorescein label

The values that follow come from publication PMC5679652, “Broadening the functionality of a J-protein/Hsp70 molecular chaperone system” (PLoS Genetics, 2017).

The target of test [1] is T1, Ssa1 (wild type, His-tagged) (S. cerevisiae, UniProt P10591 1-642).
T1 construct: Ssa1, cytosolic Hsp70 of Saccharomyces cerevisiae; Ssa1(1-532) is said to lack 110 residues, so the whole protein has 642 residues; Assayed with 1 mM ADP (anisotropy) or as a preformed 32P-ATP complex (ATPase); also called WT Ssa1; His-Ssa

The target in test [2] is T2, Ssa1 R444E (His-tagged) (S. cerevisiae, UniProt P10591 1-642, R444E). Put plainly: cell-based or functional assay.
The target in test [3] is T3, Ssa1 K446E (His-tagged) (S. cerevisiae, UniProt P10591 1-642, K446E). Put plainly: cell-based or functional assay.
The target in test [4] is T1, Ssa1 (wild type, His-tagged). The test is described as follows: fluorescence polarisation; dissociation kinetics: 5 uM Ssa1, 10 nM F-P5, 1 mM ADP brought to equilibrium, then unlabeled P5 added to 40 uM; read every 10 s; percent of the signal at t = 0. The settings on record: both partners purified.
Test [5] shares this target. Put plainly: fluorescence polarisation; equilibrium titration: 10 nM F-P5 with Ssa1 in 2-fold steps from 2.4 nM to 5 uM, 1 mM ADP, buffer A (25 mM Hepes-KOH pH 7.5, 100 mM KCl, 11 mM MgOAc), 4% glycerol, 0.005% NP-40, 24 hr at room temperature (23°C); one site saturation fit. As to conditions: both partners purified. For orientation: Polarisation of emitted light reports the rotation of a fluorescent probe.

For test [6], the target named is T2, Ssa1 R444E (His-tagged). The description is as above. The settings on record: both partners purified.
Test [7] addresses T3, Ssa1 K446E (His-tagged). Described as above. The settings on record: both partners purified.

T1 sequence (P10591 whole entry): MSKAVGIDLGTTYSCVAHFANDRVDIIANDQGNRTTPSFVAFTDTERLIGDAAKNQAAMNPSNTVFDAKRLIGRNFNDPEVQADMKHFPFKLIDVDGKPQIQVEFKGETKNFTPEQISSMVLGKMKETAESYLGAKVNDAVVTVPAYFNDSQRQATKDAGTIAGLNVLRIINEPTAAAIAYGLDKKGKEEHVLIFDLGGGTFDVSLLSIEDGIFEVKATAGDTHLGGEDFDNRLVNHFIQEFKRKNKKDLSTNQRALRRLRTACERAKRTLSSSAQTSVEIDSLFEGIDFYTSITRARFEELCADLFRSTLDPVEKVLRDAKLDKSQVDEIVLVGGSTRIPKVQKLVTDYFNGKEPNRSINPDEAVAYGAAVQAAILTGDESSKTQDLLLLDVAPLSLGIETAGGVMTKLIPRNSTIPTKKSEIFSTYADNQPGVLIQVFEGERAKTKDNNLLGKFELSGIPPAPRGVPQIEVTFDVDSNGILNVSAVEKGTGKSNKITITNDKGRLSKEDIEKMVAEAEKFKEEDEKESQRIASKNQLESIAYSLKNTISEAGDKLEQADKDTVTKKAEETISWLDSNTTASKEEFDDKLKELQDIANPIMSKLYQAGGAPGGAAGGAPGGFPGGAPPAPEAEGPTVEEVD
T2 sequence (P10591 whole entry R444E): as the sequence (P10591 whole entry) above, with R444E counted along it
T3 sequence (P10591 whole entry K446E): as the sequence (P10591 whole entry) above, with K446E counted along it

For “Ydj1 G70N (from UniProt P25491 1-409) (natural protein)”, in test [1], the stimulation of single-turnover ATPase activity of the 32P-ATP/Ssa1 complex, compared with WT Ydj1 (% less active than WT) is 20.

B1: peptide P5 (unlabeled) (peptide)
peptide: CALLLSAPRR
notes: peptide substrate P5; also called unlabeled P5; peptide substrate; source: bought: Sigma Chemical, St. Louis, MO
Consider B1, for which the entries for the “fold stimulation of single-turnover ATPase activity of the 32P-ATP/Ssa1 complex by peptide P5, relative to basal activity (four P5 concentrations; value at 133 uM)” value in the test with Ssa1 R444E (His-tagged) [2] and with Ssa1 K446E (His-tagged) [3] were 1.7 fold and 2.8 fold, respectively. Further, the binding result in test [4] is given as “binds”.

B2: fluorescein-labeled P5 peptide (peptide)
peptide: Flc-CALLLSAPRR
notes: peptide substrate P5; also called F-P5; source: bought: Sigma Chemical, St. Louis, MO
For the molecule B2, the binding result (in test [5]; with Ssa1 R444E (His-tagged) [6]; with Ssa1 K446E (His-tagged) [7]) was “binds” each time.
